# Measured values as given in PMC10025160, “Uncovering Zn^2+ as a cofactor of FAD-dependent Pseudomonas aeruginosa PAO1 D-2-hydroxyglutarate dehydrogenase” (The Journal of Biological Chemistry, 2023).
# B1: PaD2HGDH (Pseudomonas aeruginosa PAO1) (protein)
# chain: MTREALIESLKPLVEPGKLLDDAASLDAYGKDWTKHFAPAPLAIVFPKSVEQVQAIVRWANQHKVGLVPSGGRTGLSAAAVAANGEVVVAFDYMNRILDFNAFDRTVVCQPGVVTKQLQTFAEENGLYYPVDFASSGSSQIGGNIGTNAGGIKVIRYGMTRNWVAGMKVVTGKGDLLELNKDLIKNATGYDMRQLFIGAEGTLGFVVEATMRLERTPKNLTAMVLGTPDFDSIMPVLHAFQSKLDLTAFEFFSDKALAKVLARGDVPRAFETDCPFYALLEFEATTEEVANEALATFEHCVEQGWVLDGVMSQSEQQLQNLWKLREYISETISHWTPYKNDISVTVSRVPAFLKDIDAIVEANYPDFEVVWFGHIGDGNLHLNILKPENLGKDEFFAKCATVNKWVFETVEKYNGSISAEHGVGMTKRDYLTYTRSETEIAYMKALKAVFDPNGIMNPGKIFAE
# notes: wild type, His-tagged, pET20b(+), expressed in E. coli Rosetta(DE3)pLysS, Ni-NTA purified
# Substrate: O=C(O)C[C@@H](O)C(=O)O
# Experiment: initial rates, oxygen consumption (Oxy-32 electrode)
# Assay type: biochemical, Pseudomonas aeruginosa
# Details: E-Zn^2+ form (purified with 1 mM ZnCl2, Zn:protein about 2:1), 1 mM PMS (fixed), 25 mM NaPO4, pH 7.4, 25 °C, apparent
# Source text: initial rates, oxygen consumption (Oxy-32 electrode) on PaD2HGDH
protein,measurement,value
B1,Km,5.1 ± 0.4 mM
same,kcat,38 ± 1 s⁻¹
same,kcat/Km,7000 ± 500 M⁻¹ s⁻¹
